Measured values: paper PMC5426754
Read-outs that look alike come from different tables or passages of the source.

How the values were obtained:
[1] = target: Fl-C-ERMAD^516–560 (fluorescently labeled, Cys-Lys516-Leu560) (human); experiment: fluorescence polarisation; direct FP; 50 nM fluorescent tracer (Fl-C-ERMAD variants or Fl-NMIIA) titrated with S100 proteins or N-ERMAD; 20 mM HEPES pH 7.5, 150 mM NaCl, 0.1 mM TCEP, 1 mM CaCl2, 0.05% Tween-20; triplicates; quadratic binding equation
[2] = target: S100A4 (metastasin), wild type (UniProt P26447); experiment: fluorescence polarisation; competitive FP; 50 nM Fl-NMIIA complexed with 4 μM S100A4 dimer titrated with ezrin constructs; competition binding equation; triplicates
[3] = target: S100A4 (metastasin), wild type (UniProt P26447); experiment: as above; remark: listed apart in the source
[4] = target: S100A4-Δ9 (S100A4 C-terminally truncated by 9 residues) (UniProt P26447); experiment: NMR titration; unlabeled C-ERMAD (7.5 mM stock) added gradually to 15N-labeled S100A4-Δ9 dimer (250 μM) up to 2.1:1; 1H-15N HSQC, 700 MHz, 300 K; 20 mM MES pH 6.0, 150 mM NaCl, 10 mM CaCl2, 5 mM TCEP; ten shifting peaks fitted to a quadratic binding equation

Sequence of S100A4 (metastasin), wild type (UniProt P26447) (P26447 whole entry, the tested form may be a part): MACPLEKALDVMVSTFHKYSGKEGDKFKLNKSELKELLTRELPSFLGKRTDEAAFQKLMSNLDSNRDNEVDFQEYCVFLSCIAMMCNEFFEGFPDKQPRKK
Sequence of Ezrin C-ERMAD (Cys-Lys516-Leu586), unlabeled (P15311 other isoform, or with tags, fused parts or gaps): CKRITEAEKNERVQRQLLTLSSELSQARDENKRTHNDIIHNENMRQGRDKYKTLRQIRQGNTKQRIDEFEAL
Sequence of S100A4 (metastasin), wild type (from UniProt P26447 1-101) (natural protein) (P26447 whole entry, one chain of several): as the sequence (P26447 whole entry, the tested form may be a part) above

S100A4 (metastasin), wild type (from UniProt P26447 1-101) (natural protein)
Kd [1]: 8.4 µM

Ezrin C-ERMAD^516–560 (Cys-Lys516-Leu560), unlabeled (domain or fragment)
Kd [2]: 27.6 µM
Kd [3]: 28.6 µM

Ezrin C-ERMAD (Cys-Lys516-Leu586), unlabeled (from UniProt P15311 516-586) (domain or fragment)
Kd [4]: 10.8 µM
